According to patent US20220332770A1 (UNIVERSITY OF RHODE ISLAND BOARD OF TRUSTEES, published 2022):

Assays:
[1] = target: murine TLR5 (HEK293 cells co-transfected with murine TLR5 and SEAP reporter gene) (murine) (UniProt Q9JLF7); test: cell-based or functional assay
[2] = target: murine TLR5 (HEK293 cells co-transfected with murine TLR5 and SEAP reporter gene) (murine, UniProt Q9JLF7 27-859); test: cell-based or functional assay
Chain of murine TLR5 (HEK293 cells co-transfected with murine TLR5 and SEAP reporter gene) (Q9JLF7 27-859): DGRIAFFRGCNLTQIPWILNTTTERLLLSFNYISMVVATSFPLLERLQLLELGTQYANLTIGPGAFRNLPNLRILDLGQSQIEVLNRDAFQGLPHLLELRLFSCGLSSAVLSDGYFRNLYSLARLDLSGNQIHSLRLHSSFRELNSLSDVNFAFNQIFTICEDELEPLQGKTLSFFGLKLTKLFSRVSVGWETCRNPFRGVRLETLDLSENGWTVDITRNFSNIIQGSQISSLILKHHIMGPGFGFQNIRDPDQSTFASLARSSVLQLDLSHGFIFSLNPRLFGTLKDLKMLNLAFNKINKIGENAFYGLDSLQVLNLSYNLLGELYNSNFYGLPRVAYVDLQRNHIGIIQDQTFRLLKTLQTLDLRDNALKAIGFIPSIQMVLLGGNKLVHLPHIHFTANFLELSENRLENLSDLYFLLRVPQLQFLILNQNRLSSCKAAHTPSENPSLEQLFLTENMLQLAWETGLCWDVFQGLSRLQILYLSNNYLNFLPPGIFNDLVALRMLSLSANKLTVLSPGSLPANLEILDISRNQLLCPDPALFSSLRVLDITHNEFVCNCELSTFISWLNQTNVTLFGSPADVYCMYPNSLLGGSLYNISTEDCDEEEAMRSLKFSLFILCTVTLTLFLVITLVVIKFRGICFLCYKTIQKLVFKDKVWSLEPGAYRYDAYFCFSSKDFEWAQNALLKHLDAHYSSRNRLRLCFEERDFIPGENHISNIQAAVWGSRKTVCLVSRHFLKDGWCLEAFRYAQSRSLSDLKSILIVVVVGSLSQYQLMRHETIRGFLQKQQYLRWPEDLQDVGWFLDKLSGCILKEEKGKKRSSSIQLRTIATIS

Chain of murine TLR5 (HEK293 cells co-transfected with murine TLR5 and SEAP reporter gene) (murine) (Q9JLF7 27-859): as above

Molecule | lowest concentration to significantly activate TLR5 (SEAP reporter, OD620nm) [1] | fold reduction of TLR5 activation ability against FLA-ST [2] | fold reduction of TLR5 activation ability against FljB [2]
Recombinant FljB (phase 2 flagellin of S. Typhimurium strain LT2) (from UniProt P52616 1-506) (ligand) | 8 pM | – | –
FLA-ST (ultrapure FliC purified from S. Typhimurium, Invivogen) (from UniProt P06179 2-495) (ligand) | 40 pM | – | –
FljB-HBc fusion protein, self-assembled into FH VLPs (other) MDIDPYKEFGASVELLSFLPSDFFPSIRDLLDTASALYREALESPEHCSPHHTALRQAILCWGELMNLATWVGSNLEDPAGGGGSGGGGSAQVINTNSLSLLTQNNLNKSQSALGTAIERLSSGLRINSAKDDAAGQAIANRFTANIKGLTQASRNANDGISIAQTTEGALNEINNNLQRVRELAVQSANSTNSQSDLDSIQAEITQRLNEIDRVSGQTQFNGVKVLAQDNTLTIQVGANDGETIDIDLKQINSQTLGLDSLNVQKAYDVKDTAVTTKAYANNGTTLDVSGLDDAAIKAATGGTNGTASVTGGAVKFDADNNKYFVTIGGFTGADAAKNGDYEVNVATDGTVTLAAGATKTTMPAGATTKTEVQELKDTPAVVSADAKNALIAGGVDATDANGAELVKMSYTDKNGKTIEGGYALKAGDKYYAADYDEATGAIKAKTTSYTAADGTTKTAANQLGGVDGKTEVVTIDGKTYNASKAAGHDFKAQPELAEAAAKTTENPLQKIDAALAQVDALRSDLGAVQNRFNSAITNLGNTVNNLSEARSRIEDSDYATEVSNMSRAQILQQAGTSVLAQANQVPQNVLSLLRGGGGSGGGGSSRELVVSYVNVNMGLKIRQLLWFHISCLTFGRETVLEYLVSFGVWIRTPPAYRPPNAPILSTLPETTVVLEHHHHHH | – | 25 fold | > 100 fold
